± gives the standard deviation of the averaged measurements.
Tested on: ATP
Assay: switch fluorescence ratio, 500 uM ATP over buffer (Cy3 cluster intensity, sum of 5 cycles each) (fold (ratio)); higher = stronger signal-on switching upon ATP binding; sequences stand for … in TCGTCGGCAGCGTCAGATGTGTATAAGAGACAGTTTTTTTTTTTTTTTTTTTTTTTTT…TC
Conditions: aptamer strand: ATP DNA aptamer (quencher-CACCTGGGGGAGTATTGCGGAGGAAGG + anchor), 100 nM annealed; ATP concentration: 500 uM
Procedure, shortened: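 Values give the fluorescence ratio for each switch-domain sequence, averaged from per-cluster ratios of summed target-cycle to summed buffer-cycle Cy3 intensity. The Cy3-labelled switching-strand clusters sat on a modified Illumina MiSeq flow-cell, were annealed to 100 nM quencher-labelled ATP aptamer, and were imaged in selection buffer, then after 15 min with 500 uM ATP at 22 °C. Five cycles ran with NaOH stripping and re-annealing between them, and clusters outside 100-1000 RFU were excluded.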
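Further: ATP exposure 15 min at 22 °C before imaging.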

## GGGTCAAGTC
  switch fluorescence ratio: 0.968 ± 0.04

## GGGTCAGAGA
  switch fluorescence ratio: 0.987 ± 0.019

## GGGTCAGGTT
  switch fluorescence ratio: 1.01 ± 0.029

## GGGTCATGTA
  switch fluorescence ratio: 1.008 ± 0.0027

## GGGTCATTGT
  switch fluorescence ratio: 1.03 ± 0.032

## GGGTCCCGGG
  switch fluorescence ratio: 1.0586 ± 0.00036

## GGGTCCGGCG
  switch fluorescence ratio: 0.995 ± 0.034

## GGGTCGGCTA
  switch fluorescence ratio: 1.02 ± 0.035

## GGGTCGGGAA
  switch fluorescence ratio: 1.006 ± 0.0032

## GGGTCGGGGA
  switch fluorescence ratio: 0.97587 ± 0.00076

## GGGTCGGGGT
  switch fluorescence ratio: 0.99 ± 0.029

## GGGTCTACCG
  switch fluorescence ratio: 0.991 ± 0.015

## GGGTCTGCGC
  switch fluorescence ratio: 1.03 ± 0.024

## GGGTCTTCGT
  switch fluorescence ratio: 0.968 ± 0.039

## GGGTGAAGGG
  switch fluorescence ratio: 0.974 ± 0.021

## GGGTGACGGG
  switch fluorescence ratio: 1.01 ± 0.074

## GGGTGATTCC
  switch fluorescence ratio: 1.03 ± 0.014

## GGGTGATTGC
  switch fluorescence ratio: 0.964 ± 0.011

## GGGTGCCCAT
  switch fluorescence ratio: 1.03 ± 0.021

## GGGTGCGATT
  switch fluorescence ratio: 1.03 ± 0.025

## GGGTGCTTGG
  switch fluorescence ratio: 1.0239 ± 0.00098

## GGGTGGCGGT
  switch fluorescence ratio: 1.01 ± 0.021

## GGGTGGGATA
  switch fluorescence ratio: 1.02 ± 0.044

## GGGTGGGCTT
  switch fluorescence ratio: 0.997 ± 0.032

## GGGTGGGGAG
  switch fluorescence ratio: 0.984 ± 0.045

## GGGTGGGGCT
  switch fluorescence ratio: 1.01 ± 0.031

## GGGTGGGGG
  switch fluorescence ratio: 1.01 ± 0.033

## GGGTGGGGGC
  switch fluorescence ratio: 1.02 ± 0.037

## GGGTGGGGTA
  switch fluorescence ratio: 0.971 ± 0.036

## GGGTGGGTAG
  switch fluorescence ratio: 0.955 ± 0.037

## GGGTGGGTCA
  switch fluorescence ratio: 1.01 ± 0.048

## GGGTGGTCAG
  switch fluorescence ratio: 1.01 ± 0.023

## GGGTGGTGGA
  switch fluorescence ratio: 1.01 ± 0.019

## GGGTGTAAAA
  switch fluorescence ratio: 1 ± 0.022

## GGGTGTAAGG
  switch fluorescence ratio: 0.998 ± 0.022

## GGGTGTAGTG
  switch fluorescence ratio: 0.988 ± 0.024

## GGGTGTATCG
  switch fluorescence ratio: 0.9943 ± 0.0036

## GGGTGTCCTT
  switch fluorescence ratio: 0.998 ± 0.042

## GGGTGTGGGA
  switch fluorescence ratio: 0.997 ± 0.017

## GGGTGTGTGT
  switch fluorescence ratio: 1.02 ± 0.017

## GGGTGTTTAG
  switch fluorescence ratio: 1.01 ± 0.027

## GGGTGTTTGC
  switch fluorescence ratio: 1.02 ± 0.035

## GGGTGTTTTC
  switch fluorescence ratio: 0.998 ± 0.034

## GGGTGTTTTT
  switch fluorescence ratio: 0.98 ± 0.0073

## GGGTTAACGG
  switch fluorescence ratio: 1 ± 0.018

## GGGTTAAGCA
  switch fluorescence ratio: 0.9961 ± 0.0055

## GGGTTAAGGC
  switch fluorescence ratio: 1.01 ± 0.062

## GGGTTAATCG
  switch fluorescence ratio: 1 ± 0.022

## GGGTTAATTG
  switch fluorescence ratio: 0.983 ± 0.017

## GGGTTAGAAA
  switch fluorescence ratio: 1 ± 0.043

## GGGTTAGGGC
  switch fluorescence ratio: 0.988 ± 0.023

## GGGTTAGGTG
  switch fluorescence ratio: 1.14 ± 0.065

## GGGTTAGGTT
  switch fluorescence ratio: 1.01 ± 0.064

## GGGTTATCAG
  switch fluorescence ratio: 0.981 ± 0.035

## GGGTTATGCG
  switch fluorescence ratio: 1.04 ± 0.027

## GGGTTCCTGG
  switch fluorescence ratio: 0.995 ± 0.028

## GGGTTCGGAA
  switch fluorescence ratio: 0.9972 ± 0.0093

## GGGTTCGGGA
  switch fluorescence ratio: 0.991 ± 0.027

## GGGTTGAAGT
  switch fluorescence ratio: 0.985 ± 0.008

## GGGTTGACGG
  switch fluorescence ratio: 0.986 ± 0.057

## GGGTTGGACT
  switch fluorescence ratio: 0.999 ± 0.012

## GGGTTGGCGT
  switch fluorescence ratio: 0.956 ± 0.012

## GGGTTGGGCC
  switch fluorescence ratio: 0.989 ± 0.014

## GGGTTGGTAG
  switch fluorescence ratio: 0.984 ± 0.026

## GGGTTGTAGT
  switch fluorescence ratio: 1.02 ± 0.032

## GGGTTGTGGA
  switch fluorescence ratio: 1 ± 0.029

## GGGTTGTGGG
  switch fluorescence ratio: 1 ± 0.043

## GGGTTGTTGT
  switch fluorescence ratio: 0.982 ± 0.014

## GGGTTTAAAA
  switch fluorescence ratio: 0.985 ± 0.044

## GGGTTTAATT
  switch fluorescence ratio: 0.999 ± 0.011

## GGGTTTAGGT
  switch fluorescence ratio: 0.981 ± 0.011

## GGGTTTGAAG
  switch fluorescence ratio: 1 ± 0.025

## GGGTTTGATC
  switch fluorescence ratio: 0.9749 ± 0.008

## GGGTTTTCAT
  switch fluorescence ratio: 0.993 ± 0.012

## GGGTTTTGTT
  switch fluorescence ratio: 1.02 ± 0.029

## GGGTTTTTCC
  switch fluorescence ratio: 1.1 ± 0.18

Reference: the supplement of paper PMC10126150
